From US20240101668A1 (WUGEN, published 2024)
Positions count from the first letter of the chain named.

B1: Polypeptide No. 139 (scFv, V domains shown)
VH: QVQLVQSGAEVKKPGASVKVSCKASGYTLSDHDINWVRQAPGQGLEWMGWMNPSTGNTGYAQKFQGRVTMTRDTSTSTVYMELSSLRSEDTAVYYCERDQLRFGAWFDPWGQGTLVTVSS
VL: DIQMTQSPSSLSASVGDRVTITCRASQGIRNYLAWYQQKPGKAPKLLIYAASSLQSGVPSRFSGSGSGTDFTLTISSLQPEDFATYYCQQSYSIPLTFGGGTKVEIKR
notes: scFv
B2: Polypeptide No. 140 (scFv, V domains shown)
VH: EVQLVESGGGLVKPGGSLRLSCAASGITVSSSWMHWVRQAPGKGLEWVSAIGTGGGTHYADSVKGRFTISRDDSKNTLYLQMNSLKTEDTAVYYCARDQGGQIDHWGQGTLVTVSS
VL: B1 VL with G28S, R30S, N31S, Y32W, A50D, S53T
notes: scFv
B3: Polypeptide No. 143 (scFv, V domains shown)
VH: QVQLVQSGAEVKKPGASVKVSCKASGYTFTGYYMHWVRQAPGQGLEWMGWMNANSGNTGFAQKFQGRVTMTRDTSTSTVYMELSSLRSEDTAVYYCARDSSSWLSGGGWFDPWGQGTLVTVSS
VL: B1 VL with G28S, R30G, N31T, A34S, I94S, L96I, G100Q, V104L
notes: scFv
B4: Polypeptide No. 138 (scFv, V domains shown)
VH: QVQLVQSGAEVKKPGASVKVSCKASGYTFSSYDMHWVRQAPGQGLEWMGVINPGGGYTNYAQKFQGRVTMTRDTSTSTVYMELSSLRSEDTAVYYCARDEGWELLLDYWGQGTLVTVSS
VL: EIVMTQSPATLSVSPGERATLSCRASQSVGSNLAWYQQKPGQAPRLLIYGASTRATGIPARFSGSGSGTEFTLTISSLQSEDFAVYYCQQSHSLPPTFGQGTRLEIKR
notes: scFv
B5: Polypeptide No. 141 (scFv, V domains shown)
VH: QVQLVQSGAEVKKPGASVKVSCKASGGTFSSYAISWVRQAPGQGLEWMGVISPNGDTTVYAQKFQGRVTMTRDTSTSTVYMELSSLRSEDTAVYYCARDRGVAHSYYYGMDVWGQGTLVTVSS
VL: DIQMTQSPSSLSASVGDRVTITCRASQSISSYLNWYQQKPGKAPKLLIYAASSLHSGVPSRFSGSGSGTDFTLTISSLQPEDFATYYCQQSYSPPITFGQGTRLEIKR
notes: scFv
B6: Polypeptide No. 142 (scFv, V domains shown)
VH: EVQLLESGGGLVQPGGSLRLSCAASGFTFSSYWMHWVRQAPGKGLEWVAVISYDGSDKYYADSVKGRFTISRDNSKNTLYLQMNSLRAEDTAVYYCARGLGGTTGTADFDYWGQGTLVTVSS
VL: not shown
notes: scFv
B7: Polypeptide No. 223 (scFv, V domains shown)
VH: QVQLVQSGAEVKKPGASVKVSCKASGYTFTNSFIHWVRQAPGQGLEWMGIINPSGGSTSYAQKFQGRVTMTRDTSTSTVYMELSSLRSEDTAVYYCAKALERRYYYGMDVWGQGTTVTVSS
VL: B1 VL with R30S, A50D, A51G, S53N, Q55E, S56T, I94T, G100Q
notes: scFv
B8: Polypeptide No. 231 (scFv, V domains shown)
VH: QVQLVQSGAEVKKPGASVKVSCKASGYTFTSYYIHWVRQAPGQGLEWMGLINPSGGSTTYAQSFQGRVTMTRDTSTSTVYMELSSLRSEDTAVYYCARGLGWGVVVPAAELDYWGQGTLVTVSS
VL: B1 VL with G28S, R30S, N31T, A34N, S53N, I94S, G100P, E105D
notes: scFv
B9: Polypeptide No. 222 (scFv, V domains shown)
VH: QVQLVQSGAEVKKPGASVKVSCKASGYSFTAYYMHWVRQAPGQGLEWMGIINPSGGSTSYAQKFQGRVTMTRDTSTSTVYMELSSLRSEDTAVYYCARVAGINGEMAYWGQGTLVTVSS
VL: B1 VL with G28D, R30S, S53T, S93R, I94T, L96Y, G100Q
notes: scFv
B10: Polypeptide No. 219 (scFv, V domains shown)
VH: QVQLVQSGAEVKKPGASVKVSCKASGYTFTNYYMHWVRQAPGQGLEWMGIINPSSGSASYTQKLQGRVTMTRDTSTSTVYMELSSLRSEDTAVYYCARDRSTLVPLDYWGQGTLVTVSS
VL: B1 VL with N31S, Y32E, A34S, A50K, Q55E, Q89L, S91H, Y92N, I94Y
notes: scFv
B11: Polypeptide No. 218 (scFv, V domains shown)
VH: QVQLVQSGAEVKKPGASVKVSCKASGYSFTTHYMHWVRQAPGQGLEWMGIINPSGGSTRYAQKFQGRVTMTRDTSTSTVYMELSSLRSEDTAVYYCARGSSYYYYGVDVWGKGTTVTVSS
VL: B1 VL with G28S, R30S, N31T, Y32W, S91A, Y92I, I94F
notes: scFv
B12: Polypeptide No. 229 (scFv, V domains shown)
VH: QVQLVQSGAEVKKPGASVKVSCKASGYTFTNYYMHWVRQAPGQGLEWMGIINPSGGSTSYAQKFQGRVTMTRDTSTSTVYMELSSLRSEDTAVYYCARGVGYSGYGADLWGRGTLVTVSS
VL: B1 VL with R30S, Y32S, Y92H, I94P, L96Y, G100Q, V104L
notes: scFv
B13: Polypeptide No. 215 (scFv, V domains shown)
VH: QVQLVQSGAEVKKPGASVKVSCKASGYTFTGYRMHWVRQAPGQGLEWMGWINPNSGGTNYAQKFQGRVTMTRDTSTSTVYMELSSLRSEDTAVYYCAKGGLDWRNWYFDLWGRGTLVTVSS
VL: B1 VL with R30S, N31S, S53T, I94T
notes: scFv
B14: Polypeptide No. 212 (scFv, V domains shown)
VH: QVQLVQSGAEVKKPGSSVKVSCKASGYTFTGYYMHWVRQAPGQGLEWMGGIIPILGTANNAQKFQGRVTITADESTSTAYMELSSLRSEDTAVYYCARAPWGTFDYWGQGTLVTVSS
VL: EIVMTQSPATLSVSPGERATLSCRASQSVSSSQLAWYQQKPGQAPRLLIYDTSTRATGIPARFSGSGSGTEFTLTISSLQSEDFAVYYCQQYDNSLWTFGQGTRLEIKR
notes: scFv
B15: Polypeptide No. 207 (scFv, V domains shown)
VH: QVQLVQSGAEVKKPGASVKVSCKASGYTFTNYYMHWVRQAPGQGLEWMGWMNPNSGNTGYAQRFQGRVTMTRDTSTSTVYMELSSLRSEDTAVYYCAKSHYYYFYGMDVWGQGTTVTVSS
VL: DIQMTQSPSSLSASVGDRVTITCQASHDISKYLNWYQQKPGKAPKLLIYAASILQSGVPSRFSGSGSGTDFTLTISSLQPEDFATYYCQQSYSTPYTFGQGTKLEIKR
notes: scFv
B16: Polypeptide No. 208 (scFv, V domains shown)
VH: QVQLVQSGAEVKKPGASVKVSCKASGGTFSSRSISWVRQAPGQGLEWMGIINPSGGGTLYAQKFQGRVTMTRDTSTSTVYMELSSLRSEDTAVYYCAKDMDGWSDAFDIWGQGTTVTVSS
VL: EIVMTQSPATLSVSPGERATLSCRASQSLSNIYLAWYQQKPGQAPRLLIYDVSSRAAGIPARFSGSGSGTEFTLTISSLQSEDFAVYYCQQYATSPLTFGGGTKVEIKR
notes: scFv
B17: Polypeptide No. 213 (scFv, V domains shown)
VH: QVQLVQSGAEVKKPGASVKVSCKASGYTFSRYYMSWVRQAPGQGLEWMGWMNPNSGNTGYAQKFQGRVTMTRDTSTSTVYMELSSLRSEDTAVYYCARTRFAAQPHNWHFDLWGRGTLVTVSS
VL: DIQMTQSPSSLSASVGDRVTITCRASQSISSYLNWYQQKPGKAPKLLIYDASNLKTGVPSRFSGSGSGTDFTLTISSLQPEDFATYYCQQSYSTPLTFGPGTKVDIKR
notes: scFv
B18: Polypeptide No. 228 (scFv, V domains shown)
VH: QVQLVQSGAEVKKPGASVKVSCKASGGTFSSHAISWVRQAPGQGLEWMGWINPGSGGTNYAQKFQGRVTMTRDTSTSTVYMELSSLRSEDTAVYYCAKDSYDFWSGYYIDYWGQGTLVTVSS
VL: B17 VL with S30Y, S31T, Y32H, D50A, N53R, K55Q, T94F, L96F
notes: scFv
B19: Polypeptide No. 233 (scFv, V domains shown)
VH: QVQLVQSGAEVKKPGASVKVSCKASGYTFTSYYLHWVRQAPGQGLEWIGVINPSGGSTTYAQRFQGRVTMTRDTSTSTVYMELSSLRSEDTAVYYCARGIGYGGYFDYWGQGTLVTVSS
VL: DIVMTQSPLSLPVTPGEPASISCRSSQSLLHSNGYNYLDWYLQKPGQSPQLLIYAASSLQSGVPDRFSGSGSGTDFTLKISRVEAEDVGVYYCMQGLRTPHTFGGGTKVEIKR
notes: scFv

Target: T1, huCD33-R69 stably expressed on Jurkat cells (human, UniProt P20138 18-364)
T1 construct: whole, on cells; >200,000 receptors per cell; also called CD33 WT; CD33^ARG69
T1 sequence (P20138 18-364): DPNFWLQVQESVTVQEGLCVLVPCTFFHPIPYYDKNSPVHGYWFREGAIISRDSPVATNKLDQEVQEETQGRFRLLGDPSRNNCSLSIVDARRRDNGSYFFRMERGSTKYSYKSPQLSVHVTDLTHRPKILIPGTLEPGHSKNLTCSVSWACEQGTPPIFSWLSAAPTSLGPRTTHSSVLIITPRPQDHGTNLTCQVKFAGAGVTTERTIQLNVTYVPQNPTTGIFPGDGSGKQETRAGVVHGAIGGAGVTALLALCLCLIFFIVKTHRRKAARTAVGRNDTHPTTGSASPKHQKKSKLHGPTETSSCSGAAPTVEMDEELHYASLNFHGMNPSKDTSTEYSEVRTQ
Assay: FACS on cells

Binder | FACS geometric mean fold change over Jurkat parental [fold]
B1 | > 30
B2 | 2 to 10
B3 | 2 to 10
B4 | 10 to 30
B5 | 10 to 30
B6 | 2 to 10

Target: T2, huCD33-G69 stably expressed on Jurkat cells (human, UniProt P20138 18-364)
T2 construct: whole, on cells; >200,000 receptors per cell; also called CD33 Mutant; CD33 R69G
T2 sequence (P20138 18-364 R69G): as the sequence (P20138 18-364) above, with R52G counted along it
Assay: FACS on cells

Binder | FACS geometric mean fold change over Jurkat parental [fold]
B1 | > 30
B2 | 2 to 10
B3 | 2 to 10
B4 | 10 to 30
B5 | > 30
B6 | 2 to 10

Target: T3, huFLT3-T227 stably expressed on Ramos cells (human, UniProt P36888 27-993)
T3 construct: whole, on cells; also called FLT3 WT
Assay: FACS on cells
Description: (§1) For FLT3, Ramos cells were engineered to stably express either the huFLT3-T227 or huFLT3-M227 variant at >200,000 receptors per cell. Parental, huFLT3-T227, and huFLT3-M227 Ramos cell lines were stained with differing levels of CellTrace Violet Cell Proliferation Kit (ThermoFisher, cat. #C34557) to barcode each cell line. Barcoded Ramos cell lines were fixed with paraformaldehyde and incubated with myc-labeled scFv periplasmic extracts and a secondary anti-myc PE-conjugated monoclonal antibody. Appropriate positive and negative controls were used. Stained cells were analyzed by flow cytometry (CytoFLEX, Beckman Coulter, Inc.) and binding was assessed by change in PE mean fluorescence intensity (MFI) of the barcoded cell populations.

Binder | FACS geometric mean fold change over Jurkat parental [fold]
B7 | > 30
B8 | > 30
B9 | > 30
B10 | 10 to 30
B11 | 10 to 30
B12 | > 30
B13 | 10 to 30
B14 | 10 to 30
B15 | 10 to 30
B16 | 10 to 30
B17 | 10 to 30
B18 | > 30
B19 | > 30

Target: T4, huFLT3-M227 stably expressed on Ramos cells (human, UniProt P36888 27-993)
T4 construct: whole, on cells; also called FLT3 Mutant
Assay: FACS on cells
Description: as §1

Binder | FACS geometric mean fold change over Jurkat parental [fold]
B7 | > 30
B8 | > 30
B9 | > 30
B10 | 10 to 30
B11 | 10 to 30
B12 | > 30
B13 | 10 to 30
B14 | 10 to 30
B15 | 10 to 30
B16 | 10 to 30
B17 | 10 to 30
B18 | > 30
B19 | > 30

Target: T5, huCD33-G69-Fc recombinant protein (human, UniProt P20138 18-259);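 also: biolayer interferometry: scFvs captured from periplasmic extracts on anti-V5-loaded streptavidin biosensors, antigen association for 2 min, buffer dissociation for 5 min, 1:1 Langmuir fit giving off-rate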
T5 construct: extracellular domain; also called CD33 R69G
T5 sequence (P20138 18-259 R69G): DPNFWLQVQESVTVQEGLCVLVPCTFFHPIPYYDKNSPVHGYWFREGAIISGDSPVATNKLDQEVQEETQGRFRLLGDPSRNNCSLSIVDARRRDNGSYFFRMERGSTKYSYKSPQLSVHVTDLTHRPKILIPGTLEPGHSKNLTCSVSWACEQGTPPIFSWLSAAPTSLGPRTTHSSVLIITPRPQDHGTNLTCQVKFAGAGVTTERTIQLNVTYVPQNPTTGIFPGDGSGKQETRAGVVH
Assay: BLI

Binder | binding result
B1 | binds
B2 | binds
B3 | binds
B4 | binds
B5 | binds
B6 | binds
